The values that follow come from paper PMC12442443, “Identifying interactions between TDP‐43's N‐terminal and RNA‐binding domains” (Protein Science : A Publication of the Protein Society, 2024).

The target in series [1] is TDP-43 1-260 (NTD-RRM1-RRM2) (Homo sapiens, UniProt Q13148). Briefly: MST; apparent Kd; NMR: 40 mM HEPES pH 6.5, 300 mM NaCl, 4 mM DTT, 25 C, 25 uM protein; EMSA: same buffer, 25 C incubation, 6.25% PAGE 0.5x TBE at 4 C; MST and HTRF buffers not in material. The note with it: protein: recombinant; tags: His (MST: NT-647 labelled HisTDP-43; tag cleaved when needed); single strand.
TDP-43 1-260 (NTD-RRM1-RRM2), sequence (Q13148 1-260): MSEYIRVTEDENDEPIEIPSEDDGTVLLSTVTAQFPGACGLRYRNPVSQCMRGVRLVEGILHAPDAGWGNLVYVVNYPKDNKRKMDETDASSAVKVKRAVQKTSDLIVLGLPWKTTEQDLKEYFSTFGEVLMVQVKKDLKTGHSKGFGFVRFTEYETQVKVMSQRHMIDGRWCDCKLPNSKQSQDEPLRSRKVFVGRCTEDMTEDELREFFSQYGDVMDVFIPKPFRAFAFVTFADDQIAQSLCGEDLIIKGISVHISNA

The target in series [2] is TDP-43 102-260 (RRM1-RRM2) (Homo sapiens, UniProt Q13148). Described as above. Particulars: protein: recombinant; tags: His (MST: NT-647 labelled HisTDP-43; tag cleaved when needed); single strand.
TDP-43 102-260 (RRM1-RRM2), sequence (Q13148 102-260): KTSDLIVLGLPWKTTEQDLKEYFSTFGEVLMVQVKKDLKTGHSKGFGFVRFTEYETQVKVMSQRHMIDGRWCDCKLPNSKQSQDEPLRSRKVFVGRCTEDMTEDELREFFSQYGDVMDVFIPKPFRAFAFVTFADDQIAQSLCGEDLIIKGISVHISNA
The next series addresses TDP-43 1-102 (NTD) (Homo sapiens, UniProt Q13148). The series is described as follows: HTRF; ligand (UG)6 per legend; Methods heading names biotin (UG)4; NMR: 40 mM HEPES pH 6.5, 300 mM NaCl, 4 mM DTT, 25 C, 25 uM protein; EMSA: same buffer, 25 C incubation, 6.25% PAGE 0.5x TBE at 4 C; MST and HTRF buffers not in material. The note with it: protein: recombinant; tags: His; single strand.

TDP-43 1-102 (NTD), sequence (Q13148 1-102): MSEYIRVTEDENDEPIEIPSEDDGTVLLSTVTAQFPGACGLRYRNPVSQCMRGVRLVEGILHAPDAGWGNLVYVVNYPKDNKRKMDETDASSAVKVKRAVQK

B1: (UG)4 (ssRNA)
RNA: UGUGUGUG
Consider B1, for which, in series [1], the Kd turned out to be 246 nM.

B2: (UG)6 (ssRNA)
RNA: UGUGUGUGUGUG
With B2, the Kd in series [1] was 28.4 nM; in series [2] it was 39.8 nM.

B3: (UG)6 HTRF ligand (ssRNA)
RNA: UGUGUGUGUGUG
B3: the binding result with TDP-43 1-102 (NTD) is “no binding”.
